The record followed here is patent US20170267736A1.

The assay addresses human IGF-IR expressed on recombinant NIH-3T3 cells (human) (UniProt P08069). In words: cell-based or functional assay.
Sequence of UniProt P08069 (P08069 31-1367): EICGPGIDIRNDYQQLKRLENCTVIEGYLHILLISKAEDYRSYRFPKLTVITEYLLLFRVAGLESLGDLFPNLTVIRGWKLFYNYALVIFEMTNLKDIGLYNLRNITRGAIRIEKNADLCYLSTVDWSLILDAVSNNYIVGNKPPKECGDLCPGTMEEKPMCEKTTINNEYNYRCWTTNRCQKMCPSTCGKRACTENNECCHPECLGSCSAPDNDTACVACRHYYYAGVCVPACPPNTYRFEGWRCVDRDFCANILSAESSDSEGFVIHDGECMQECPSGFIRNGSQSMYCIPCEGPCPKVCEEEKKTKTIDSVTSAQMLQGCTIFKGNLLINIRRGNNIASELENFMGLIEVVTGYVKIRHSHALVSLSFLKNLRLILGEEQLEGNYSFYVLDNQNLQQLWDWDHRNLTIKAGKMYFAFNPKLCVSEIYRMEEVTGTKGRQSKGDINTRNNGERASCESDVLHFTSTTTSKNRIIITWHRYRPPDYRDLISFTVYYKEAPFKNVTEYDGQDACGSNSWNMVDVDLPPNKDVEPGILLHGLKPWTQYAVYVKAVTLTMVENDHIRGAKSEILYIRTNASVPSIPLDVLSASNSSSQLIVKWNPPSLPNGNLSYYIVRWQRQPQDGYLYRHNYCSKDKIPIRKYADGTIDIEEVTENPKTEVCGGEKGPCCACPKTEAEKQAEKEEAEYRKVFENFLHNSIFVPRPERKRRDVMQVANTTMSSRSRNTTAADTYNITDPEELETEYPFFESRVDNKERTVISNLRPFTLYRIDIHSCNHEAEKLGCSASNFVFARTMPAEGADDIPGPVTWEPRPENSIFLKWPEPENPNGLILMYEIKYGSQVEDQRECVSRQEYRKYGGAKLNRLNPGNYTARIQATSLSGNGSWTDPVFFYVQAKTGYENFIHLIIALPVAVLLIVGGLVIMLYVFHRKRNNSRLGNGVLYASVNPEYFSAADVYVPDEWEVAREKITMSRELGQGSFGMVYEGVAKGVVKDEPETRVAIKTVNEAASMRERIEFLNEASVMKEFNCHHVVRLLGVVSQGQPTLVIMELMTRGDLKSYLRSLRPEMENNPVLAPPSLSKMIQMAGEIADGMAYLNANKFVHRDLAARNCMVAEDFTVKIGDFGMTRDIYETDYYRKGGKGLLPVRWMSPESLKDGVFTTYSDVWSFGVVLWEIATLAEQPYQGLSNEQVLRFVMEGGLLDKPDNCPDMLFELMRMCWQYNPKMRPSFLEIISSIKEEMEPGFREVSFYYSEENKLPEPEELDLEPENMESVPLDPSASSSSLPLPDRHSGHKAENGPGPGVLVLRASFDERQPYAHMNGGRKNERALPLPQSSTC
As to “wt-rhIGF-I - YRHAK MCa PEG20000 (from UniProt P05019 49-118) (ligand)”, the Activation of IGF-1R (phospho-IGF-IR ELISA), EC50 [nM] came out at 18.4 nM.
In the case of “rhIGF-I (K27R, K65R) (from UniProt P05019 49-118) (ligand)” it was 1.2 nM; in that of “wt-rhIGF - trypsin site - Strep-Tag (ligand)”, 1.7 nM.
